What was measured:
[1] = target: T1, human CD3 on T cells (Jurkat cells; human peripheral blood CD4+ and CD8+ T-cells) (human, UniProt P07766 23-207); experiment: flow cytometry on human peripheral blood CD4+ T cells
T1 construct: whole, on cells; the other chains of the complex are present on the cells; also called CD4T; CD4 + T

[2] = target: T1, human CD3 on T cells (Jurkat cells; …); experiment: flow cytometry on human peripheral blood CD8+ T cells
[3] = target: T2, Cynomolgus monkey CD3εγ-Fc heterodimer (cynomolgus monkey); experiment: ELISA on coated cynomolgus monkey CD3εγ protein (panel 'Monkey CD3εγ dimer')
T2 construct: also called cynomolgus monkey CD3εγ protein
T2 chain 1: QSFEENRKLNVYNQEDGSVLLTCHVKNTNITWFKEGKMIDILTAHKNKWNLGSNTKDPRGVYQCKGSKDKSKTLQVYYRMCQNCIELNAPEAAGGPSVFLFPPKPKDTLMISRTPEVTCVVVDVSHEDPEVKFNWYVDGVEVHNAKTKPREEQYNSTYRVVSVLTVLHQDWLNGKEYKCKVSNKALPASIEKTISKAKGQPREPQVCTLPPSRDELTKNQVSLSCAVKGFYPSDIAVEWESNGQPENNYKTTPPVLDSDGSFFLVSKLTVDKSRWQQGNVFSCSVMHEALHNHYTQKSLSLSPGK
T2 chain 2: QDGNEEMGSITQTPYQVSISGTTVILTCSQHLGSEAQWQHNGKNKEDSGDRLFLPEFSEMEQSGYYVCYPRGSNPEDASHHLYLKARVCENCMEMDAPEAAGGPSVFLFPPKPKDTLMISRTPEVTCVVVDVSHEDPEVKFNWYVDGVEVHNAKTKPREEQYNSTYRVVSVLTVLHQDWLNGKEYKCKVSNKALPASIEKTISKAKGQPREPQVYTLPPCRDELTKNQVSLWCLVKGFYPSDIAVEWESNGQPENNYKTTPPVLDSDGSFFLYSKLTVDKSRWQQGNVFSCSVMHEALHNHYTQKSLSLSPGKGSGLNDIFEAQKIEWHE
Description: Human CD3εγ protein and cynomolgus monkey CD3εγ protein were coated separately overnight at 4° C. After blocking with 2% skim milk, different dilutions of CD3 antibody were added to each well and incubated for 1 hour. After the secondary antibody was developed by adding HPR-labeled goat anti-human IgG Fc and TMB solution, the reaction was stopped with concentrated sulfuric acid, and the absorbance was read at 450 nm.

human BCMA on cells [4] = target: T3, human BCMA on cells (human, UniProt Q02223 1-184); experiment: flow cytometry on RPMI-8226 cells
T3 construct: whole, on cells; also called Human BCMA-CHO; CHO-hBCMA
T3 sequence (looked up): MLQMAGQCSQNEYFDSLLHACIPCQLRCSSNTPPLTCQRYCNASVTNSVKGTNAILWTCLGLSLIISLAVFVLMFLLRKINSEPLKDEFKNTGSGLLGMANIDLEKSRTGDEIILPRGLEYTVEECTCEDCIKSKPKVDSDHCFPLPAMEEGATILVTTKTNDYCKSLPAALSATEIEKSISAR
Description: (§1) 50 μL/well Alexa Fluro647 labeled goat anti-human IgG Fc (1: 300 dilution) were added to the secondary antibody, incubated on ice for 20 min, added with 50 μL/well PI solution (1: 300) after washing once, incubated for 5 min, and flow cytometer was used to make detection.

human BCMA on cells [5] = target: T3, human BCMA on cells; experiment: flow cytometry on CHO-human BCMA cells
Description: as §1

[6] = target: T1, human CD3 on T cells (Jurkat cells; …); experiment: flow cytometry on human peripheral blood CD4+ T-cells
Description: (§2) Fresh human peripheral blood was taken and PBMC was isolated by Ficoll. Paque Plu (GE, 17-1440-03). PBMC was adjusted to 5×10⁵ cells/mL with 4% calf serum (Hyclone, SH30626.06), 100 μL/well was added to a 96-well U-plate, the supernatant was centrifuged off and 100 μL of gradient diluted antibody (with starting concentration of 1800 nM, 3-fold dilution, 10 gradients) was added to each well and incubated for 60 min at 4° C. 50 μL/well of Alexa Fluro647 labeled goat anti-human IgG Fc (1: 300 dilution) was added to the secondary antibody, with ice bath for 20 min, and 50 μL/well PI added after washing once, incubated for 5 min, and flow cytometer (BD C6) was used for detection. The control antibody REGN5458 was synthesized and prepared according to US20200024356.

[7] = target: T1, human CD3 on T cells (Jurkat cells; …); experiment: flow cytometry on human peripheral blood CD8+ T-cells
Description: as §2

human BCMA on cells [8] = target: T3, human BCMA on cells; experiment: flow cytometry on NCI-H929 cells
Description: as §1

[9] = target: cynomolgus monkey BCMA recombinant antigen (cynomolgus monkey, UniProt A0A2K5UD97 1-53); experiment: SPR (Biacore T200), antigen amine-coupled to CM5 chip, antibody as analyte, 1:1 model
Chain of cynomolgus monkey BCMA recombinant antigen (A0A2K5UD97 entry or part of it): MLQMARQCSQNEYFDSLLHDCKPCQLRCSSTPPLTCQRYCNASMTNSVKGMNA
Description: (§3) 10 μg/mL human or cynomolgus monkey BCMA or CD3εγ recombinant antigen was bound to a CM5 chip (GE healthcare) by amino conjugating, while the amount of antigen bound was controlled to approximately 200 RU. After baseline plateau, gradient diluted antibodies (7 gradients of 2-fold dilutions from 10 μg/mL) were flowed through the chip at a flow rate of 30 μL/min for a binding time of 350 seconds and a dissociation time of 600 seconds. Kinetic constants were fitted using Biacore T200 evaluation software with a 1: 1 binding model.

[10] = target: T2, Cynomolgus monkey CD3εγ-Fc heterodimer; experiment: as above
Description: as §3

[11] = target: T4, human CD3εγ-Fc heterodimer (human); experiment: as above
T4 construct: also called human CD3εγ protein; human CD3εγ recombinant protein
T4 chain 1: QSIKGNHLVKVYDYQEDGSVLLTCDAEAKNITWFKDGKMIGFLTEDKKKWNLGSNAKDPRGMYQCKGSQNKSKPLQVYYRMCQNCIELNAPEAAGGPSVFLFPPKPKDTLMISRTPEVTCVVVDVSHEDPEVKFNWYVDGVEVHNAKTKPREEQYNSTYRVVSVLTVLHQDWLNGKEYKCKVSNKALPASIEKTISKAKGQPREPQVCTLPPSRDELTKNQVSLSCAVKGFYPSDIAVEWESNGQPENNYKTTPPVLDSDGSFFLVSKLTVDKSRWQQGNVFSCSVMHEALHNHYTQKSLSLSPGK
T4 chain 2: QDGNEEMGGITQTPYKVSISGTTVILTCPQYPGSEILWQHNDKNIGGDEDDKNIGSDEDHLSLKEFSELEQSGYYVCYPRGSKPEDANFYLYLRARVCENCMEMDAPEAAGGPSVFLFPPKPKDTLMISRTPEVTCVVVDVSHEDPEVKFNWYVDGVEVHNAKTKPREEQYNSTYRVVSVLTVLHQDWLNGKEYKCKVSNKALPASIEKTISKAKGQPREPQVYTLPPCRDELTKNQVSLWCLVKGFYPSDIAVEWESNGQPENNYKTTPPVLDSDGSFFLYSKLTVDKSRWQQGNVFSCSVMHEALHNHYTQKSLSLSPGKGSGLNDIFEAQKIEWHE
Description: as §3

[12] = target: T5, human BCMA recombinant antigen (human, UniProt Q02223 1-54, limits assumed); experiment: as above
T5 sequence (looked up): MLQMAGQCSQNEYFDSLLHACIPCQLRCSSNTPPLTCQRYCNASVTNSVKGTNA
Description: as §3

[13] = target: T1, human CD3 on T cells (Jurkat cells; …); experiment: flow cytometry on Jurkat cells
Description: The cells were adjusted to 5×10^5 cells/mL with 4% calf serum, 100 μL/well was added to 96-well U-plate, 300 g was centrifuged to removed the supernatant, 100 μL/well of gradient diluted antibody (initial concentration: 1800 nM, 3-fold dilution, 10 gradients) was added and incubated at 4° C. for 60 min. […] 50 μL/well PI was added after washing once, incubated for 5 min, and detected with flow cytometer (BD C6).

B1: REGN5458 (antibody, V domains shown)
VH: EVQLVESGGGLVQPGRSLRLSCAASGFTFDDYSMHWVRQAPGKGLEWVSGISWNSGSKGYADSVKGRFTISRDNAKNSLYLQMNSLRAEDTALYYCAKYGSGYGKFYHYGLDVWGQGTTVTVSS
VL: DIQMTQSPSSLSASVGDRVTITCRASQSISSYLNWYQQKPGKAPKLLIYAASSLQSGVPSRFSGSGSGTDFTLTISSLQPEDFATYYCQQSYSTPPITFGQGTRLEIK
[1]
  EC50 (read off the curve): ~10 nM
[2]
  EC50 (read off the curve): ~10 nM

B2: aCD3-hVH9/VL2 (antibody, human IgG4, V domains shown)
VH: EVQLVESGGGLVQPGGSLRLSCAASGFTFNTYAMNWVRKAPGKGLEWVGRIRSKYNNYATYYADSVKDRFTISRDDSKNSLYLQMNSLKTEDTAVYYCVRHGNFGNSYVSWFAYWGQGTLVTVSS
VL: QAVVTQEPSLTVSPGGTVTLTCRSSTGAVTTSNYANWVQEKPGQAPRGLIGGTNKRAPWTPARFSGSLLGGKAALTLSGAQPEDEAEYYCALWYSNLWVFGGGTKLTVL
notes: also called humanized anti-CD3 antibody hVH9/VL2
[3]
  EC50 (read off the curve): ~0.04 ng/mL

B3: aCD3-hVH9/VL5 (antibody, human IgG4, V domains shown)
VH: EVQLVESGGGLVQPGGSLRLSCAASGFTFNTYAMNWVRKAPGKGLEWVGRIRSKYNNYATYYADSVKDRFTISRDDSKNSLYLQMNSLKTEDTAVYYCVRHGNFGNSYVSWFAYWGQGTLVTVSS
VL: QAVVTQEPSLTVSPGGTVTLTCRSSTGAVTTSNYANWVQEKPGQAPRGLIGGTNKRAPWTPARFSGSLLGGKAALTITGAQAEDEAEYYCVLWYSNLWVFGGGTKLTVL
notes: also called humanized anti-CD3 antibody hVH9/VL5
[3]
  EC50 (read off the curve): ~0.06 ng/mL

B4: BCMA×CD3 κλ006 (bispecific antibody, human IgG4 S228P, kappa, lambda)
light 1: DIVLTQSPASLAVSPGQRATITCRASKSVTTSGYSYIHWYQKKPGQPPKLLIYLASDLEAGVPARFSGSGSGTDFTLTINPVEAEDTANYYCQHSRELPWTFGQGTKVEIKRTVAAPSVFIFPPSDEQLKSGTASVVCLLNNFYPREAKVQWKVDNALQSGNSQESVTEQDSKDSTYSLSSTLTLSKADYEKHKVYACEVTHQGLSSPVTKSFNRGEC
heavy 1: QVQLVQSGSELKKPGASVKVSCKASGYIFTNFGMNWVREAPGQGLEWMGWINTYTGEQIYADGFTGRFVFSLDTSASTAYLQISSLKAEDTAVYFCARGEIYYGYDVGFVYWGQGTLVTVSSASTKGPSVFPLAPCSRSTSESTAALGCLVKDYFPEPVTVSWNSGALTSGVHTFPAVLQSSGLYSLSSVVTVPSSSLGTKTYTCNVDHKPSNTKVDKRVESKYGPPCPPCPAPEFEGGPSVFLFPPKPKDTLMISRTPEVTCVVVDVSQEDPEVQFNWYVDGVEVHNAKTKPREEQFNSTYRVVSVLTVLHQDWLNGKEYKCKVSNKGLASSIEKTISKAKGQPREPQVCTLPPSQEEMTKNQVSLSCAVKGFYPSDIAVEWESNGQPENNYKTTPPVLDSDGSFFLVSKLTVDKSRWQEGNVFSCSVMHEALHNHYTQKSLSLSLGK
light 2: QAVVTQEPSLTVSPGGTVTLTCRSSTGAVTTSNYANWVQEKPGQAPRGLIGGTNKRAPWTPARFSGSLLGGKAALTITGAQAEDEAEYYCVLWYSNLWVFGGGTKLTVLGQPKAAPSVTLFPPSSEELQANKATLVCLISDFYPGAVTVAWKADSSPVKAGVETTTPSKQSNNKYAASSYLSLTPEQWKSHRSYSCQVTHEGSTVEKTVAPTECS
heavy 2: EVQLVESGGGLVQPGGSLRLSCAASGFTFNTYAMNWVRKAPGKGLEWVGRIRSKYNNYATYYADSVKDRFTISRDDSKNSLYLQMNSLKTEDTAVYYCVRHGNFGNSYVSWFAYWGQGTLVTVSSASTKGPSVFPLAPCSRSTSESTAALGCLVKDYFPEPVTVSWNSGALTSGVHTFPAVLQSSGLYSLSSVVTVPSSSLGTKTYTCNVDHKPSNTKVDKRVESKYGPPCPPCPAPEFEGGPSVFLFPPKPKDTLMISRTPEVTCVVVDVSQEDPEVQFNWYVDGVEVHNAKTKPREEQFNSTYRVVSVLTVLHQDWLNGKEYKCKVSNKGLASSIEKTISKAKGQPREPQVYTLPPCQEEMTKNQVSLWCLVKGFYPSDIAVEWESNGQPENNYKTTPPVLDSDGSFFLYSKLTVDKSRWQEGNVFSCSVMHEALHNHYTQKSLSLSLGK
Human BCMA on cells [4]
  EC50: 19 nM
Human BCMA on cells [5]
  EC50: 16 nM
[6]
  EC50: 91 nM
[7]
  EC50: 93 nM
Human BCMA on cells [8]
  EC50: 32 nM
[9]
  Kd: 0.1 nM
[10]
  Kd: 33 nM
[11]
  Kd: 27 nM
[12]
  Kd: 1.2 nM
[13]
  EC50: 56 nM
